Test results reported in US20210269542A1 (POTENZA THERAPEUTICS, published 2021).
Changes are numbered by the printed parent chain. Numbers in names are those of the source. Where two headings read alike, the source gives them in different places. Values belong to the binder of their own block, whether it stands above or below them.

How the values were obtained:
[1] = molecular target: T1, human GITR expressed on cells (human, UniProt Q9Y5U5 26-241); assay: cell-based or functional assay
T1 sequence: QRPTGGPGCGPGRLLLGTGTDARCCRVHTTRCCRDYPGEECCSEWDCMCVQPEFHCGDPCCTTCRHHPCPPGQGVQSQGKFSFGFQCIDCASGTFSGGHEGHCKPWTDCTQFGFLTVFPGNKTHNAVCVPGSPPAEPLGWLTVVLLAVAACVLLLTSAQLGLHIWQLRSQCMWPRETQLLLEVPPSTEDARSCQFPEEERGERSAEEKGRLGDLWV

[2] = molecular target: T1, human GITR expressed on cells; assay: cell-based or functional assay; remark: listed apart in the source
[3] = molecular target: T2, cynomolgus monkey GITR expressed on HT1080 cells (cynomolgus monkey); assay: cell-based or functional assay
T2 chain: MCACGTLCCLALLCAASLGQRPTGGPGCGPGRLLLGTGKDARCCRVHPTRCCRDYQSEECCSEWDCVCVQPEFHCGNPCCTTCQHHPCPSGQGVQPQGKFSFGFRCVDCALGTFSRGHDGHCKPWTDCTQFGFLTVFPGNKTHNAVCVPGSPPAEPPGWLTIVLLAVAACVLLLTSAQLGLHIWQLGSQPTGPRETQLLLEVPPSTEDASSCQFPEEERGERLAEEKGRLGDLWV

[4] = molecular target: T1, human GITR expressed on cells; assay: cell-based or functional assay; remark: listed apart in the source
[5] = molecular target: T2, cynomolgus monkey GITR expressed on …; assay: cell-based or functional assay
[6] = molecular target: T1, human GITR expressed on cells; assay: cell-based or functional assay; remark: listed apart in the source
[7] = molecular target: T2, cynomolgus monkey GITR expressed on …; assay: cell-based or functional assay
[8] = molecular target: T1, human GITR expressed on cells; assay: cell-based or functional assay; remark: listed apart in the source
[9] = molecular target: T2, cynomolgus monkey GITR expressed on …; assay: cell-based or functional assay
[10] = molecular target: T1, human GITR expressed on cells; assay: cell-based or functional assay; remark: listed apart in the source
cyno GITR-Fc = molecular target: T3, cyno GITR-Fc (cynomolgus monkey); assay: BLI Octet RED384, ABP on AHQ sensor, 100 nM antigen, single concentration;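 note: association and dissociation each tracked over 180 s, with dissociation run in antigen-free buffer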
T3 construct: also called cGITR; cynomolgus GITR
T3 chain: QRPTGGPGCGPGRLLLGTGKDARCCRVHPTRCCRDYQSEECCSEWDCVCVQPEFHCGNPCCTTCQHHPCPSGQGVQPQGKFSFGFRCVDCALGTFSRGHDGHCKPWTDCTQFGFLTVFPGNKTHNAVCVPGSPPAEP
Procedure: (§1) The sensors were quenched by dipping into an unrelated human IgG1 antibody to prevent non-specific binding of GITR-Fc antigens to the sensor. The sensors were equilibrated in assay buffer for 30 minutes. Baseline was established by dipping the sensors into assay buffer for 60 seconds. Association was monitored for 180 seconds in 100 nM of recombinant antigens, and dissociation was followed for 180 seconds in buffer alone. KD was determined using the kinetic function of the FORTEBIO® Analysis Software using a 1:1 binding model.

human GITR-Fc = molecular target: T4, human GITR-Fc (human, UniProt Q9Y5U5 26-162); assay: as above
T4 construct: also called recombinant hGITR; wild type human GITR-Fc
T4 sequence: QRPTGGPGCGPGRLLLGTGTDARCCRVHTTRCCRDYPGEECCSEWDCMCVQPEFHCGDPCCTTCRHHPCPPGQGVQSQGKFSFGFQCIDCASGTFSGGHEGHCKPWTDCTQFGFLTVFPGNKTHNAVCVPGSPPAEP
Procedure: as §1

[11] = molecular target: T5, human GITR-Fc mutant Y61A (human, UniProt Q9Y5U5 26-162); assay: BLI (Octet): GITR-Fc mutant on anti-human Fc sensor, ABP1 Fab in solution
T5 chain: T4 sequence with Y36A
Procedure: (§2) Binding was assessed by Bio-Layer Interferometry (BLI) using the Octet platform.

[12] = molecular target: T6, human GITR-Fc mutant C66D (human, UniProt Q9Y5U5 26-162); assay: as above
T6 chain: T4 sequence with C41D
Procedure: as §2

[13] = molecular target: T7, human GITR-Fc mutant D60A (human, UniProt Q9Y5U5 26-162); assay: as above
T7 chain: T4 sequence with D35A
Procedure: as §2

[14] = molecular target: T8, human GITR-Fc mutant C67A (human, UniProt Q9Y5U5 26-162); assay: as above
T8 chain: T4 sequence with C42A
Procedure: as §2

[15] = molecular target: T9, human GITR-Fc mutant R59A (human, UniProt Q9Y5U5 26-162); assay: as above
T9 chain: T4 sequence with R34A
Procedure: as §2

[16] = molecular target: T10, human GITR-Fc mutant C58A (human, UniProt Q9Y5U5 26-162); assay: as above
T10 construct: Point mutation in the human GITR extracellular domain with an Fc tag
T10 chain: T4 sequence with C33A
Procedure: as §2

[17] = molecular target: T11, human GITR-Fc mutant P62A (human, UniProt Q9Y5U5 26-162); assay: as above
T11 chain: T4 sequence with P37A
Procedure: as §2

[18] = molecular target: T12, human GITR-Fc mutant E65A (human, UniProt Q9Y5U5 26-162); assay: as above
T12 chain: T4 sequence with E40A
Procedure: as §2

[19] = molecular target: T13, human GITR-Fc mutant R56A (human, UniProt Q9Y5U5 26-162); assay: as above
T13 chain: T4 sequence with R31A
Procedure: as §2

[20] = molecular target: T14, human GITR-Fc mutant E64A (human, UniProt Q9Y5U5 26-162); assay: as above
T14 chain: T4 sequence with E39A
Procedure: as §2

B2: ABP46 (antibody, human IgG1, kappa, N297A, V domains shown)
VH: QVQLVQSGAEVKKPGSSVKVSCKASGGTFSSYAISWVRQAPGQGLEWMGGIIPISGFANYAQKFQGRVTITADESTSTAYMELSSLRSEDTAVYYCAREGGHYYSGWPYWGQGTLVTVSS
VL: EIVLTQSPATLSLSPGERATLSCRASQSVSSYLAWYQQKPGQAPRLLIYDASNRATGIPARFSGSGSGTDFTLTISSLEPEDFAVYYCQQRLVFPPTFGGGTKVEIKR
notes: IgG1 N297A, H1H2-optimized, non-TM
EC50 in cynomolgus HT1080 (IL-8 induction), n = 1 [9]: 6.9 nM | EC50 in human HT1080 (IL-8 induction), n = 2 [10]: 1.2 nM | Kd (cyno GITR-Fc): 111 nM | Kd (human GITR-Fc): 59.8 nM

B3: ABP47 (antibody, human IgG1, kappa, N297A, V domains shown)
VH: QVQLVQSGAEVKKPGSSVKVSCKASGGTFVRYAISWVRQAPGQGLEWMGGIIPIFGEAQYAQKFQGRVTITADESTSTAYMELSSLRSEDTAVYYCAREGYYYGALPYWGQGTLVTVSS
VL: B2 VL with R91H, L92S
notes: as for B2
EC50 in cynomolgus HT1080 (IL-8 induction), n = 1 [9]: 11.8 nM | EC50 in human HT1080 (IL-8 induction), n = 2 [10]: 4.1 nM | Kd (cyno GITR-Fc): 88.1 nM | Kd (human GITR-Fc): 44.3 nM

B4: ABP20 (antibody, human IgG4 S228P, kappa)
heavy: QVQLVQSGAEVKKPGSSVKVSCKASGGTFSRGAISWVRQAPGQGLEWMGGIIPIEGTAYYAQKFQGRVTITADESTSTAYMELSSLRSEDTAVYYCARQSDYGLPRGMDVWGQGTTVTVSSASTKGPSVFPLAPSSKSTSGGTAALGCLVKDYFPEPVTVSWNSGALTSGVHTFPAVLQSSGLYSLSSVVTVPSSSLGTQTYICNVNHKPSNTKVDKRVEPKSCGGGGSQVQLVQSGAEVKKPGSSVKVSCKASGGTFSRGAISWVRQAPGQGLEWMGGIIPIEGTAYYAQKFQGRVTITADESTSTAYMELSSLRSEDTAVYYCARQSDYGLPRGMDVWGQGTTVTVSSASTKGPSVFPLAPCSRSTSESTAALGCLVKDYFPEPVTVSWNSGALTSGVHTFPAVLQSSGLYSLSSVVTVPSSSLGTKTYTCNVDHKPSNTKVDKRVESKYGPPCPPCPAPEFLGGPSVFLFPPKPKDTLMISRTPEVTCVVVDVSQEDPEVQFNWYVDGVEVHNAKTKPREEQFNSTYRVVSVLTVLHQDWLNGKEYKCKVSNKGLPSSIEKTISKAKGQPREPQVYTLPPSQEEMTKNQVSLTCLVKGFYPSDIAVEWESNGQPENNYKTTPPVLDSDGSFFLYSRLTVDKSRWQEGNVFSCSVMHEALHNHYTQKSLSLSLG
light: DIQLTQSPSSVSASVGDRVTITCRASQGISSWLAWYQQKPGKAPKLLIYGASSLQSGVPSRFSGSGSGTDFTLTISSLQPEDFATYYCQQASLFPPTFGGGTKVEIKRTVAAPSVFIFPPSDEQLKSGTASVVCLLNNFYPREAKVQWKVDNALQSGNSQESVTEQDSKDSTYSLSSTLTLSKADYEKHKVYACEVTHQGLSSPVTKSFNRGEC
notes: TM format, N-terminal Fab: VH + IgG1 CH1 + GGGGS + VH + IgG4 S228P
Average EC50 in human HT1080 (IL-8 induction) [1]: 0.63 nM | Kd (cyno GITR-Fc): 5.2 nM | Kd (human GITR-Fc): 4.4 nM

B5: ABP26 (antibody, human IgG4 S228P, kappa)
heavy: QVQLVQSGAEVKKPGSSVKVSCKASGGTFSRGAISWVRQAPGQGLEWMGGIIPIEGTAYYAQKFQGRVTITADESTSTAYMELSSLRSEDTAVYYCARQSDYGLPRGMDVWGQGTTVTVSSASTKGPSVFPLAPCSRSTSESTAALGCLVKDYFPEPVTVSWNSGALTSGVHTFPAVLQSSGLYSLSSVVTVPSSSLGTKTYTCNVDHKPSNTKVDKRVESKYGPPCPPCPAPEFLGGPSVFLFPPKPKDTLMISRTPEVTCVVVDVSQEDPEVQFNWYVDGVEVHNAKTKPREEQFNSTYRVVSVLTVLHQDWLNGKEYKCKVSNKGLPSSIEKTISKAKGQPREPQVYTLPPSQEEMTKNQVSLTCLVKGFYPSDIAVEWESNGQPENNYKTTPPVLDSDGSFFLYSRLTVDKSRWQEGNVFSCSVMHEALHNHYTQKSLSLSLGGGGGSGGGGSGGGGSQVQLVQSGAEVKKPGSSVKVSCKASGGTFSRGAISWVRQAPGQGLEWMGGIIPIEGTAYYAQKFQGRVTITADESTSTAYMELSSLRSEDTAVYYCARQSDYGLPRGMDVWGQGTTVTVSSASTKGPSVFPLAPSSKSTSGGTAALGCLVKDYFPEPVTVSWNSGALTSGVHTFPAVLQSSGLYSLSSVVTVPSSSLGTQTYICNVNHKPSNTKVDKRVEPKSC
light: B4 light
Average EC50 in human HT1080 (IL-8 induction) [1]: 0.63 nM | Kd (cyno GITR-Fc): 5.1 nM | Kd (human GITR-Fc): 5.1 nM

B8: ABP45 (antibody, human IgG1, kappa, N297A, V domains shown)
VH: QVQLVQSGAEVKKPGSSVKVSCKASGGTFSRGAISWVRQAPGQGLEWMGGIIPIEGTAYYAQKFQGRVTITADESTSTAYMELSSLRSEDTAVYYCARQSDYGLPRGMDVWGQGTTVTVSS
VL: DIQLTQSPSSVSASVGDRVTITCRASQGISSWLAWYQQKPGKAPKLLIYGASSLQSGVPSRFSGSGSGTDFTLTISSLQPEDFATYYCQQASLFPPTFGGGTKVEIKR
notes: as for B2
EC50 in cynomolgus HT1080 (IL-8 induction), n = 1 [9]: 15.1 nM | EC50 in human HT1080 (IL-8 induction), n = 2 [10]: 10.5 nM | Kd (human GITR-Fc): 112 nM

Other lines, results leading:

Average EC50 in human HT1080 (IL-8 induction) [1]: 0.37 nM | EC50, Jurkat cells expressing human GITR (run with ABP 1) [2]: 0.9 nM | EC50, Jurkat cells expressing human GITR (run with ABP 2) [2]: 0.91 nM | EC50, Jurkat cells expressing human GITR (run with ABP 3) [2]: 0.85 nM | EC50, Jurkat cells expressing human GITR (run with ABP 4) [2]: 1.13 nM | EC50, Jurkat cells expressing human GITR (run with ABP 5) [2]: 1.01 nM | EC50, Jurkat cells expressing human GITR (run with ABP 6) [2]: 0.9 nM | EC50, Jurkat cells expressing human GITR (run with ABP 7) [2]: 0.81 nM | EC50, Jurkat cells expressing human GITR (run with ABP 8) [2]: 0.89 nM | Average EC50 in cynomolgus HT1080 (IL-8 induction) [3]: 0.17 nM | Average EC50 in human HT1080 (IL-8 induction) [4]: 0.43 nM | EC50 in cynomolgus HT1080 (IL-8 induction) [5]: 0.2 nM | EC50 in human HT1080 (IL-8 induction) [6]: 0.4 nM | Average EC50 in cynomolgus HT1080 (IL-8 induction) [7]: 0.076 nM | Average EC50 in human HT1080 (IL-8 induction) [8]: 0.12 nM
B1: trimeric human GITR ligand (ligand, UniProt Q9UNG2 50-177, looked up)
chain: QLETAKEPCMAKFGPLPSKWQMASSEPPCVNKVSDWKLEILQNGLYLIYGQVAPNANYNDVAPFEVRLYKNKDMIQTLTNKSKIQNVGGTYELHVGDTIDLIFNSEHQVLKNNTYWGIILLANPQFIS

EC50 in cynomolgus HT1080 (IL-8 induction), n = 1 [9]: 65.8 nM | EC50 in human HT1080 (IL-8 induction), n = 2 [10]: 2.7 nM | binding result (cyno GITR-Fc): no binding (tested: 100 nM) | Kd (human GITR-Fc): 63.5 nM
B6: ABP49 (antibody, human IgG1, kappa, N297A, V domains shown)
VH: QVQLQESGPGLVKPSQTLSLTCTVSGGSISSGGAVWSWIRQHPGKGLEWIGGIAYSGSTYYNPSLKSRVTISVDTSKNQFSLKLSSVTAADTAVYYCARDSVRGYGDYGGHHAFDIWGQGTMVTVSS
VL: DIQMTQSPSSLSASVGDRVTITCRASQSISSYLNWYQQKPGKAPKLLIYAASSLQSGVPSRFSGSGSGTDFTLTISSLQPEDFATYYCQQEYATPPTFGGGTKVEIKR
notes: as for B2

binding result [11]: no binding | binding result [12]: no binding | binding result [13]: binds | binding result [14]: no binding | binding result [15]: no binding | binding result [16]: no binding | binding result [17]: binds | binding result [18]: binds | binding result [19]: binds | binding result [20]: no binding
B7: ABP1 Fab (Fab, V domains shown)
VH: QVQLQESGPGLVKPSETLSLTCAVSGYSISSGLGWGWIRQPPGKGLEWIGGIYESGSTYYNPSLKSRVTISVDTSKNQFSLKLSSVTAADTAVYYCAHERVRGYGDYGGHHAFDIWGQGTMVTVSS
VL: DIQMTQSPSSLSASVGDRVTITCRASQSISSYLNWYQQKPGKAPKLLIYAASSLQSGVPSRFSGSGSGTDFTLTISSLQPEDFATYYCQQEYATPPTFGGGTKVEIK
